# B1: Delta^MAX: engineered human DLL4 consensus variant with 10 mutations combining DLL4.v1 and DLL4.v2 mutations; sequence matches SEQ ID NO: 4/10 (protein)
# chain: SSVFQLQLQEFINERGVLASGRPCEPGCRTFFRVCLKHFQAVVSPGPCTFGTVSTPVLGTNSFAVRDDSSGGGRNPLQLPLNFTWPGTFSLIIEAWHAPGDDLRPEALPPDALISKFAIQGSLAVGQNWLLDEQTSTLTRLRYSYRVICSDNYYGDNCSRLCKKRNDYFGHYVCQPDGNPSCLPGWTGEYCQQPICLSGCHEQNGYCSKPAECLCRPGWQGRLCNECIPHPGCRHGTCSTPWQCLCDEGWGGLYCDQDLNYCTHHSPCKNGATCRNSGPRSYTCTCRPGYTGVDCELELSECDSNPCRNGGSCKDQEDGYHCLCPPGYYGLHCEHSTLSCADSPCFNGGSCRERNQGANYACECPPNFTGSNCE
# How the values were obtained:
# Notch1 [1] = assay: Kinetics for Notch activation assay (time course, CHO-K1 N1-Gal4); type: cell-based; details: immobilized at 50 nM; most pronounced in first 4 to 8 hours
# Procedure: 96-well tissue culture plates (Coastar) were pre-coated using ligand-oriented coupling as described above with 50 nM of DLL4 biotinylated variants. CHO-K1 N1-Gal4 reporter cells were detached with trypsin-EDTA, washed with DPBS, and 200 μL of α-MEM media containing 30,000 cells were added into wells. Notch activation was analyzed as end-points for 0, 4, 8, 12, 16, 20, and 24-hour measurements. Desired time point wells containing CHO-K1 N1-Gal4 reporter cells were washed once with 200 μL DPBS, detached with trypsin-EDTA, and quenched with 200 μL of α-MEM media. Next, reporter cells were resuspended and analyzed by flow cytometry reading the fluorescence of H2B-mCitrine (BD Accuri C6 Plus). Every time point represents the mean fluorescence intensity of Notch activation as percentage+s.d. of three independent biological replicates. Notch activation was reference-subtracted from a well containing streptavidin, BSA and CHO-K1 N1-Gal4 cells.
# Target sequence in this assay (P46531 295-488 limits assumed): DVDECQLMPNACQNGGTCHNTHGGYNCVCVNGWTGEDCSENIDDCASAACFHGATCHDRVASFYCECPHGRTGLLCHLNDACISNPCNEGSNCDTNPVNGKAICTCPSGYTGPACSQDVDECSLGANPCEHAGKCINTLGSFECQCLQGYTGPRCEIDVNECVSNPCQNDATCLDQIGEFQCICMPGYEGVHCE
# Notch3 = assay: U2OS luciferase reporter assay, ligands on streptavidin plates; type: cell-based, human; details: 50 nM immobilized
# Procedure: (§1) For U2OS reporter cells, approximately 5×10E5 cells were plated into 6-well plates (Falcon) and let to adhere overnight at 37° C., 5% CO2 in DMEM media (Cytiva). On day two, media was replaced with serum-free DMEM and cells transfected with luciferase vectors. Cationic lipoplexes were generated for 15 min at room temperature by mixing 10 μL of Lipofectamine 2000 (Invitrogen), 2.5 μg of Gal4-firefly luciferase reporter, and 50 ng of pRL-TK Renilla luciferase vector as internal control (ratio 1:5, Lipo:DNA). On day three, streptavidin plates were coupled with DLL4 ligands like described above using 10-fold serial dilutions starting at 50 nM, and transfected U2OS cells were detached with Trypsin-EDTA, washed with DPBS, and counted in the microscope. Twenty-thousand reporter cells were added to wells using 200 μL of DMEM media containing 2 μg/mL of doxycycline (Sigma) to induce Notch-Gal4 expression. Next, signaling plates were incubated for 24 hours at 37° C. and 5% CO2. On day four, luciferase firefly and Renilla signals were determined with Dual-Glo luciferase assay system (Promega) using a GloMax luminometer (Promega). A luminescence ratio firefly:Renilla was determined for every well and normalized to the signal of a non-related control protein (PA domain of RNF128). Notch activation is represented as the mean fold-change over the control±s.d. of three independent biological replicates.
# Notch2 [2] = assay: as above; type: cell-based, human; details: 50 nM immobilized
# Procedure: as §1
# Notch1 [3] = assay: as above; type: cell-based, human; details: 50 nM immobilized
# Procedure: as §1
# Target sequence in this assay (P46531 19-1664 limits assumed): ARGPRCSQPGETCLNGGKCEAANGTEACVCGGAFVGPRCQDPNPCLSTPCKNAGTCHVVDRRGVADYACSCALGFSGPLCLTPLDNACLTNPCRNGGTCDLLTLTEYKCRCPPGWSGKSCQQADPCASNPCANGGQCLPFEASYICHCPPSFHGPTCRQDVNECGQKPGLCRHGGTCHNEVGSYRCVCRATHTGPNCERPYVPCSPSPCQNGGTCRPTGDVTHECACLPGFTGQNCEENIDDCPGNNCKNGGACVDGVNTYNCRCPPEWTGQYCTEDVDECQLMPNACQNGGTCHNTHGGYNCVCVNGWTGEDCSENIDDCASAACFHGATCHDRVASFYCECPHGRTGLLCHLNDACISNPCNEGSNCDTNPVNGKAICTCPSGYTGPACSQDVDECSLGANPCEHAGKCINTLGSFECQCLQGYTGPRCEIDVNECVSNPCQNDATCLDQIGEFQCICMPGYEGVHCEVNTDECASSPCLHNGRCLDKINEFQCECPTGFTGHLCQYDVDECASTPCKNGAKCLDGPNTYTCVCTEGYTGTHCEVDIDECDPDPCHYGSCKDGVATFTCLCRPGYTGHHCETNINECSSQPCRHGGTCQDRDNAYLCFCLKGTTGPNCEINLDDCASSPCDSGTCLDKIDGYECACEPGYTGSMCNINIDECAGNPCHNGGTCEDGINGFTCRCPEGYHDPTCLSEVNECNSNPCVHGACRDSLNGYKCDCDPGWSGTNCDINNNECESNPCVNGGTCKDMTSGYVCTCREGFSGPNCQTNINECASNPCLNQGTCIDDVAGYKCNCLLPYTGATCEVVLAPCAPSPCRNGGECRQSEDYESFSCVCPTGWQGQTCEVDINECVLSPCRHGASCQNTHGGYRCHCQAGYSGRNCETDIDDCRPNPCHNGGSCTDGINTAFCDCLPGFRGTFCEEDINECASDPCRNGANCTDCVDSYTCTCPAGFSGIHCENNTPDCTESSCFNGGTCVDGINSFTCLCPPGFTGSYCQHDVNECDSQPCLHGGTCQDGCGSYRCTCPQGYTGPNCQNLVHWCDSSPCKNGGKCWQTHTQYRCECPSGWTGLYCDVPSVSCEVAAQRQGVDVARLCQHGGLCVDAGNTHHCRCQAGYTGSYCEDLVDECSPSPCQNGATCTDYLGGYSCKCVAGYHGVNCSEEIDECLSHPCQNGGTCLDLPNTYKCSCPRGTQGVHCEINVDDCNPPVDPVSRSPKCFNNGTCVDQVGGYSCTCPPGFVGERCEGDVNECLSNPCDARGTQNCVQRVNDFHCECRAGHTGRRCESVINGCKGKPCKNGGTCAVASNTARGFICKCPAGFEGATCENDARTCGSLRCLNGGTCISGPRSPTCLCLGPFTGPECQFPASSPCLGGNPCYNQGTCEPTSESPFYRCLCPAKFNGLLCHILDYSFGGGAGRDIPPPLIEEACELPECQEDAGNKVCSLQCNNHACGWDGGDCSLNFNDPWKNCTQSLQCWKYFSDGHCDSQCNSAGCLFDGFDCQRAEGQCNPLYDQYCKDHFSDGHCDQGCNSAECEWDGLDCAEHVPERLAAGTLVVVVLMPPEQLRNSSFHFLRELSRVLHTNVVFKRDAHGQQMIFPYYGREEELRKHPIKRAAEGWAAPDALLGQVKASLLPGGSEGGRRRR
# Target sequence in this assay (P46531 1665-1756 limits assumed): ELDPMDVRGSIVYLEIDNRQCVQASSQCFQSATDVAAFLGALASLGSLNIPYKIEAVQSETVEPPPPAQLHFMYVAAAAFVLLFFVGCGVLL
# Notch1 (EGF6-13) = assay: SPR determination of equilibrium dissociation constants; type: binding, human
# Procedure: Equilibrium dissociation constants were determined by surface plasmon resonance using a Biacore T200 instrument (GE Healthcare). Approximately 100 resonance units (RU) of biotinylated Notch extracellular fragments (Notch1 (EGF6-13), Notch2 (EGF6-13), Notch3 (EGF5-12), Notch4 (7-12), and mouse Notch1 (EGF6-13)) were immobilized on individual flow cells at 5 μl/min using a streptavidin-coated sensor chip (Series S Sensor chip SA, GE Healthcare). Three-fold serial dilutions of recombinant DLL4 proteins (N-EGF5) starting at 50 μM (WT DLL4), 18 μM (DLL4.v2), and 6 μM (DLL4.v1 and Delta^MAX) were flowed over the chip at 25° C. in SPR buffer (20 mM HEPES pH 7.4, 150 mM NaCl, 1 mM calcium chloride, 0.1% BSA supplemented with 0.005% surfactant P20). Association (“on-rate”) and dissociation (“off-rate”) phases were performed at 10 μl/min for 120 seconds and 300 seconds, respectively. The sensor chip was regenerated after each injection with 30-second washes of 2.25M Magnesium Chloride containing 25% Ethylene Glycol at 50 μL/min. Data collection rate was performed at 10 Hz, and curves were reference-subtracted from a flow cell containing 100 RU of a negative control non-related protein (biotinylated mouse RNF43 PA domain). The maximum RU for each experiment was normalized to a value of 100% and plotted as a function of concentration using Prism 9 software (GraphPad). Steady-state binding and kinetic curves were fitted using the Biacore T200 evaluation software to a 1:1 Langmuir model to determine the KD values.
# CD8+ T cells = assay: Quantitative real-time PCR of activation markers in CD8+ T cells; type: cell-based, human; details: K32 loaded with 0.0125 μg/mL OKT3, over four days
# Procedure: Human CD8^+ T cells were co-cultured with K32-DLL4 cells for 96 hours and positively enriched by MACS column (Invitrogen Kit). Total RNA was isolated from CD8^+ T cells using TRIzol (Life Technologies). Reverse transcription reaction was performed using Verso cDNA Synthesis Kit (Thermo Scientific). Quantitative PCR reactions were prepared by using Bio-Rad SYBR green master mix and performed on an Applied Biosystems thermocycler (7900 HT). Relative expression was calculated using the ΔΔCt method and normalized to B2M levels. The data represent the mean quantity of mRNA (in-fold) for different T cell markers±s.e.m. of four independent biological replicates. Pair primers used were: […]
# Notch2 [4] = molecular target: T1, Notch2 (Homo sapiens, UniProt Q04721); assay: Immunoblot of cleaved Notch2 in CD8+ T cells; type: cell-based; details: CD8+ T cells after 96 hours with K32 cells
# T1 construct: endogenous in cells; host or cells: primary human CD8+ T cells from PBMC
# Source text: For detection of Notch activation in CD8^+ T cells, following co-culture with K32 cell lines, CD8^+ T cells were positively enriched by Magnisort Human CD8^+ T cell positive selection Kit (Invitrogen). Nuclear fraction was isolated using NE-PER Nuclear and Cytoplasmic extraction kit (ThermoFisher). Equal protein amounts of nuclear cell lysates were run on 4-20% gradient Tris-glycine gels (Novex-Invitrogen), transferred to PVDF membranes using an iBlot Gel Transfer Device (ThermoFisher), and immunoblotted with antibodies anti-cleaved Notch1 (Val1744 rabbit mAb, Cell Signaling Technology, 1:1,000), anti-Notch2 (D76A6 rabbit mAb, Cell Signaling Technology, 1:1,000), and anti-β Actin (mouse mAb, Sigma, 1:20,000). Secondary antibodies anti-IgG (anti-rabbit or anti-mouse, GE Healthcare, 1:5,000) conjugated to horseradish peroxidase (HRP) were used for detection of proteins using ECL Western Blot Substrate Reagent (Thermo Fisher Scientific). Images were acquired using a Chemidoc Imaging System and analyzed with Image-Lab software (Bio-Rad).
# Sequence of Notch1 (EGF6-13) (P46531 257-526 limits assumed): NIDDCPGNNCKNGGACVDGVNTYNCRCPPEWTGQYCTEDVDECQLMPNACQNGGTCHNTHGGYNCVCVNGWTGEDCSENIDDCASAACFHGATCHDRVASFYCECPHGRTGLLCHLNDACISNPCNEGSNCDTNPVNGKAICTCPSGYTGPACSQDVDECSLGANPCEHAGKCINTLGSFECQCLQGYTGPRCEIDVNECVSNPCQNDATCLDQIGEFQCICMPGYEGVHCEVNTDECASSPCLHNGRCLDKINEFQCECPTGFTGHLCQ
# T1 sequence (Q04721 26-2471): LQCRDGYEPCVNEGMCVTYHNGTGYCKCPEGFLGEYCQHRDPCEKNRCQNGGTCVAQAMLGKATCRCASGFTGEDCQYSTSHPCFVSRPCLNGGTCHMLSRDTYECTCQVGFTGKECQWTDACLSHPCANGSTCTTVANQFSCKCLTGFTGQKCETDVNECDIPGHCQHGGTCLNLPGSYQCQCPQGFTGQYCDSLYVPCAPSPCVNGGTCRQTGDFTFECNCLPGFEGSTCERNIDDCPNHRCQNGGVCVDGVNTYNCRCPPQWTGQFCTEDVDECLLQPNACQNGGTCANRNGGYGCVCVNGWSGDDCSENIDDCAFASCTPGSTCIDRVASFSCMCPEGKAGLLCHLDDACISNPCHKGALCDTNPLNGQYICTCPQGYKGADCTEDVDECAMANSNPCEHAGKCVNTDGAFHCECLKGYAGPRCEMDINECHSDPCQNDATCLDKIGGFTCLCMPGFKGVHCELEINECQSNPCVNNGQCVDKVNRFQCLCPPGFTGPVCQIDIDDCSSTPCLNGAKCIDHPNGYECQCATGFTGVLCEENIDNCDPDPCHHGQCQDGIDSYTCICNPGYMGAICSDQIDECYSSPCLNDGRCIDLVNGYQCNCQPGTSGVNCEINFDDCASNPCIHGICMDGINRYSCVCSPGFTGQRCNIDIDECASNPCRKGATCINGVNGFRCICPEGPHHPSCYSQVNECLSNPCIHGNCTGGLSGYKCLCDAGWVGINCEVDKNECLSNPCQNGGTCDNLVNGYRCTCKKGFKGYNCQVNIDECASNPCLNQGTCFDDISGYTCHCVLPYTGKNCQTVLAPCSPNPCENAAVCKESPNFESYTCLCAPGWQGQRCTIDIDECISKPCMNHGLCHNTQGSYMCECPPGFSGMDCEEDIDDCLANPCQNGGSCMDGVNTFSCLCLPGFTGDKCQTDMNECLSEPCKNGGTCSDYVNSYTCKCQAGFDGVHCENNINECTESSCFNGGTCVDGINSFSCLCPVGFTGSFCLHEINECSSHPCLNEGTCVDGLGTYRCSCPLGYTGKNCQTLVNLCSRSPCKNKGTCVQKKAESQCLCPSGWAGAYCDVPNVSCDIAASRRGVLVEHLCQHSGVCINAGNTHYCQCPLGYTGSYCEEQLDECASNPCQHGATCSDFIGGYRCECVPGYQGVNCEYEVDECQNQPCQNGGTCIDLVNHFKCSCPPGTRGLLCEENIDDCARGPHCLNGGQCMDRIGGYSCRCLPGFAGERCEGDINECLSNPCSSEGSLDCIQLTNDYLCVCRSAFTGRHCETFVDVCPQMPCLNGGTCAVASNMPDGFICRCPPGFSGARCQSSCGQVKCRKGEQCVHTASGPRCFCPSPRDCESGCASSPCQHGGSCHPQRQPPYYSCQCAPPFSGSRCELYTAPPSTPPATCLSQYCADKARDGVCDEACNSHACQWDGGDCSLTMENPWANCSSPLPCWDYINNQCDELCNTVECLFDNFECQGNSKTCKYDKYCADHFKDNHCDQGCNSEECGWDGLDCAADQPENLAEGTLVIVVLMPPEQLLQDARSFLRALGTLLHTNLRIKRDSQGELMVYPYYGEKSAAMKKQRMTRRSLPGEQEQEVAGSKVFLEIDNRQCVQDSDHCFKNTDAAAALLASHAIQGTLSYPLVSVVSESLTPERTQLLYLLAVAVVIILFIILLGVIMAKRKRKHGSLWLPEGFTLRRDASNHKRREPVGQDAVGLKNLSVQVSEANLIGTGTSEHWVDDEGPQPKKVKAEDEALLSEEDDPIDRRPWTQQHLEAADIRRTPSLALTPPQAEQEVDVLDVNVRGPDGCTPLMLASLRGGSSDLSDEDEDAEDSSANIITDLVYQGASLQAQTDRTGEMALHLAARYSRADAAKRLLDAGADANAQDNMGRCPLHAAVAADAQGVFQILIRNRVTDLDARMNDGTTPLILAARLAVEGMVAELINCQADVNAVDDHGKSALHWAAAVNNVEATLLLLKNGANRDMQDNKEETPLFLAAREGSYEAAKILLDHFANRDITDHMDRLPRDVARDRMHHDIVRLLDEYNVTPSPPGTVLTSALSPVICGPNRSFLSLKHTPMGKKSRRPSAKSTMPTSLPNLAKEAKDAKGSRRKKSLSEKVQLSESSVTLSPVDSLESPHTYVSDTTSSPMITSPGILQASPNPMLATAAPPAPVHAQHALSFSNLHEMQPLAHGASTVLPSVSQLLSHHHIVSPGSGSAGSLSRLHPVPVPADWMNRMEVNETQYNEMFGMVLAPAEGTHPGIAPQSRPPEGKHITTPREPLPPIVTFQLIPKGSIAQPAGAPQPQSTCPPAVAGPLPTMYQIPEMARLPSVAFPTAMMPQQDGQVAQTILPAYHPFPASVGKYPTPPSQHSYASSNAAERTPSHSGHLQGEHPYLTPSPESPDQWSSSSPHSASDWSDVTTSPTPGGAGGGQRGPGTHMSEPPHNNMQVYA
# Sequence of Notch2 (Q04721 221-530 limits assumed): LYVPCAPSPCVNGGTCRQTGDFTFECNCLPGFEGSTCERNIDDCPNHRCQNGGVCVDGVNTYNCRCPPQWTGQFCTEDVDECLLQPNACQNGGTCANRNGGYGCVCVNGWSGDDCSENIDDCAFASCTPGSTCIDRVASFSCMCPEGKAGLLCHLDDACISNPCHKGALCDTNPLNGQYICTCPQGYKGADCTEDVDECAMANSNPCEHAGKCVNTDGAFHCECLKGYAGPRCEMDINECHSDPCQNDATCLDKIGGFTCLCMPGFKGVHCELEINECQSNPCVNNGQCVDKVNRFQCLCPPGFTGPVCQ
molecule,measurement,setting,value
B1,speed of Notch1 activation compared to WT DLL4,Notch1 [1],more rapidly
same,increase in Notch3 signaling vs WT DLL4,Notch3,3 fold
same,increase in Notch2 signaling vs WT DLL4,Notch2 [2],2.5 fold
same,increase in Notch1 signaling vs WT DLL4,Notch1 [3],2 fold
same,enhancement of affinity compared to WT DLL4,Notch1 (EGF6-13); Notch1,"1,029 fold"
same,Kd,"Notch1 (EGF6-13); SPR, 25° C., ligand N-EGF5, read-out: dissociation constant (KD)",24 nM
same,off-rate from fitted SPR sensograms,"Notch1 (EGF6-13); series DLL4.v1, DLL4.v2, Delta^MAX, FIG. 2C Notch1 EGF6-13",progressive decreases in off-rate
same,binding affinity compared to WT DLL4,Notch1 (EGF6-13); stated for all four human Notch receptors (Notch1-4),enhanced affinity
same,Granzyme B mRNA level vs WT DLL4 or mock,CD8+ T cells,increased levels
same,Hes-4 (Notch target) expression vs WT DLL4 or mock,CD8+ T cells,elevated expression
same,IFNγ mRNA level vs WT DLL4 or mock,CD8+ T cells,increased levels
same,Notch2 activation (cleaved ICD) relative to WT DLL4,Notch2 [4],increased
